The values that follow are results of earlier work, collected in PMC8297464.

The target in one data set is ACE2 (Homo sapiens) (UniProt Q9BYF1).
Data set [1] deals with Spike RBD RBD (SARS-CoV-2) (UniProt P0DTC2).

Human defensin 5, sequence (Q01523 63-94): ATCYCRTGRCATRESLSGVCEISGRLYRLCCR

Take Human defensin 5 (from UniProt Q01523): the Kd with ACE2 (Homo sapiens) is 39.3 nM.
On to “SBP1 α1 helix 23-mer (from UniProt Q9BYF1)”, for which, in data set [1], the Kd is 47 nM.

By Kd is commonly meant the constant that tells how readily two partners part at equilibrium.
